Results from the supplement of paper PMC9170038.

Test system: MS2 coat protein
Assay: apparent KD of MS2 coat protein; designed switch direction (-1 OFF switch, 1 ON switch): -1; higher = weaker reporter binding
Summary of the method: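 An oligonucleotide input, 200 uM small-molecule ligand, or no input was present during titration of SNAP-549-labelled MS2 coat protein, which was doubled from 0.7 or 1.5 nM to 3 µM. Designed RNA switches had been transcribed on Illumina chips by stalled E. coli RNA polymerase. Apparent KD per design is the median over clusters of curves fitted to normalised cluster fluorescence.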

[1] = Eterna round: R95, input ligand: microRNA oligo, concentration not stated
[2] = Eterna round: R95, input ligand: FMN 200 uM
[3] = Eterna round: R95, input ligand: none
[4] = input ligand: microRNA oligo, concentration not stated

## GGAUCGAGUGUGAGGAUAUGCAGGUCCUUGGAUCUGCAGAAGGCACAUGAGGAUCACCCAUGUGAUCAAGAUCC [Mat - Exclusion 4 - Eli Mod - D47] (Eterna round: R97, puzzle: Brourd's mod of Exclusion 4)
Input ligand: FMN 200 uM
  apparent KD of MS2 coat protein: 36.6 nM
Input ligand: none
  apparent KD of MS2 coat protein: 777 nM

## GGAUCGAGUGUGAGGAUAUGCUGGUCCUUGGAUCAGCAGAAGGCACAUGAGGAUCACCCAUGUGAUACCGAUCC [Eli bmx4 4.67] (Eterna round: R97, puzzle: Brourd's mod of Exclusion 4)
Input ligand: FMN 200 uM
  apparent KD of MS2 coat protein: 736 nM
Input ligand: none
  apparent KD of MS2 coat protein: 71 nM

## GGAUCGUAUGUCAGGAUAUACCACUGGAUACAGUGGUAGAAGGGACAUGAGGAUCACCCAUGUCUUAUCGAUCC [Fiskers BMX 4 - 52] (puzzle: Brourd's mod of Exclusion 4)
[1]
  apparent KD of MS2 coat protein: 14.3 nM

## GGCACACAUGAGGAUCACCCAUGUGAGGAUAUGUUAGUUUCGGCCAAAGCCGAAAUUAACAGAAGGCACAUGCC [JR_Exclusion1_Sub021] (puzzle: Exclusion 1)
[1]
  apparent KD of MS2 coat protein: 13.3 nM

## GGCAGCUCAGGAUAUAGUUAAAACGACAUGAGGAUCACCCAUGUGACUGAUAUGCGGCGCCUAGAAGGGAGGUGCC [Xeusisso] (puzzle: Exclusion 5)
[1]
  apparent KD of MS2 coat protein: 14.6 nM

## GGCAUCGGAGGAUAUACUUAUGGUGAUGCCCGAAGCUUUCUACUUGAGGAUCACCCAAGUAGAAGGCCGAUGCC [jl-ex2.4.79 ViennaUCT mod] (Eterna round: R97, puzzle: Exclusion 2)
Input ligand: FMN 200 uM
  apparent KD of MS2 coat protein: 11.2 nM
Input ligand: none
  apparent KD of MS2 coat protein: 12.7 nM

## GGCAUGUAAGGAUAUGCCACGCAGUCCUUUGGGCUGCGUAAGCAGAAGGUACAUGAGGAUCACCCAUGUGAUAA [jl-ex4-4.56 ViennaUCT mod] (Eterna round: R97, puzzle: Exclusion 4)
Input ligand: FMN 200 uM
  apparent KD of MS2 coat protein: 865 nM
Input ligand: none
  apparent KD of MS2 coat protein: 591 nM

## GGCCCGGGAGGAUAUACAUGAGGAUCACCCAUGUUGAGCUUGAGGAUCUUCGAGUUCGGUAGAAGGCCCGGGCC [-35.1, -32.9 kcal, 22% A, 1, 0] (Eterna round: R97, puzzle: Exclusion 3)
Input ligand: FMN 200 uM
  apparent KD of MS2 coat protein: 201 nM
Input ligand: none
  apparent KD of MS2 coat protein: 27.2 nM

## GGCCCUAGGGUCAGAUGCACAAGCUUUUUGCUCGUUUUAACAUGAGGAUCACCCAUGUCUAGUGGAUCUGAUCGGGU [Indiso] (puzzle: Sensor v3, turn-off variant 2)
[2]
  apparent KD of MS2 coat protein: 18.2 nM
[1]
  apparent KD of MS2 coat protein: 48.7 nM
[3]
  apparent KD of MS2 coat protein: 17.4 nM

## GGCCGUAAUAAGGAUAUCACUAGCGAUAGCUAGUGAGAAGGUAUUACAUGAGGAUCACCCAUGUGAUCAGGCCA [E6/3-B3] (Eterna round: R97, puzzle: Exclusion 6)
Input ligand: FMN 200 uM
  apparent KD of MS2 coat protein: 1180 nM
Input ligand: none
  apparent KD of MS2 coat protein: 176 nM

## GGCGACCUAGGAUAUACAUGAGGAUCACCCAUGUUUAUCUAAUAGAUGAAGACGGGUUGUAGAAGGAGGAAAAU [Geriin] (puzzle: Exclusion 3)
[1]
  apparent KD of MS2 coat protein: 13.1 nM

## GGGAAGGGAGGAUAUGAGGGAGAGAACAUGAGGAUCACCCAUGUGAGACCUCAGGAUCGAUCAGAAGGCCCGAUCC [AK-MS2ROC-r4-exclusion5-14] (Eterna round: R97, puzzle: Exclusion 5)
Input ligand: FMN 200 uM
  apparent KD of MS2 coat protein: 677 nM
Input ligand: none
  apparent KD of MS2 coat protein: 383 nM

## GGGACCCUUGUAGGAUAUAGAACCGCAGGAGGUCUAGAAGGGCACUGGUCGCCGUGGACAUGAGGAUCACCCAUGUGUUUGCCC [Eternabot solution 36] (Eterna round: R96, puzzle: Exclusion NG 1)
Input ligand: FMN 200 uM
  apparent KD of MS2 coat protein: 55.2 nM
[4]
  apparent KD of MS2 coat protein: 40.2 nM
Input ligand: none
  apparent KD of MS2 coat protein: 52.4 nM

## GGGAGGGAUGCAGGAUAUGCGAGGGAGGGAGGAGUAGAAGGGCAUGAGGAUCACCCAUGUGACAUGAGGAUCACCCAUGUGGGA [Success - 29% A] (Eterna round: R96, puzzle: Exclusion NG 1)
Input ligand: FMN 200 uM
  apparent KD of MS2 coat protein: 78 nM
[4]
  apparent KD of MS2 coat protein: 80.2 nM
Input ligand: none
  apparent KD of MS2 coat protein: 82 nM

## GGGCCACAUGAGGAUCACCCAUGUGAGGAUAUCAUGCUUCGUAGUAAACUACGAAGUGUGAGAAGGCACAAUGG [Omei Ex1 C9] (Eterna round: R97, puzzle: Exclusion 1)
Input ligand: FMN 200 uM
  apparent KD of MS2 coat protein: 444 nM
Input ligand: none
  apparent KD of MS2 coat protein: 143 nM

## GGGCCACAUGAGGAUCACCCAUGUUAGGAUAUUUGUUCGGUGCUAUGAAUUCAAGGCUAGAGAAGGAACAGGGA [Eternabot (L1) Solution 46] (Eterna round: R97, puzzle: Exclusion 1)
Input ligand: FMN 200 uM
  apparent KD of MS2 coat protein: 22.4 nM
Input ligand: none
  apparent KD of MS2 coat protein: 23 nM

## GGGCGGCGGACCGUGGCUUUUUGCUCGUCUUAUGCUUCGACAUGAGGAUCACCCAUGUGGUGGUGGUCCGUUGUGGG [Grok-var2-13 mod JAL] (puzzle: Sensor v3, turn-off variant 2)
[2]
  apparent KD of MS2 coat protein: 18.4 nM
[1]
  apparent KD of MS2 coat protein: 15.5 nM
[3]
  apparent KD of MS2 coat protein: 20.8 nM

## GGGCGUUAAGGAUAUGAUUGAAGGAACAUGAGGAUCACCCAUGUUCGGUGCCUAAUGUUCUCAGAAGGUGAUAGCU [Eternabot (L1) Solution 50] (Eterna round: R97, puzzle: Exclusion 5)
Input ligand: FMN 200 uM
  apparent KD of MS2 coat protein: 186 nM
Input ligand: none
  apparent KD of MS2 coat protein: 175 nM

## GGGCUAGAAGGAGGAUAUUGAAGAUCCUCACGACAUGAGGAUCACCCAUGUGGUUUAGCAAGGGCCAAGAAGGCCUAUAGCCCA [Zasoan] (Eterna round: R96, puzzle: Exclusion NG 2)
Input ligand: FMN 200 uM
  apparent KD of MS2 coat protein: 111 nM
[4]
  apparent KD of MS2 coat protein: 52.1 nM
Input ligand: none
  apparent KD of MS2 coat protein: 77.3 nM

## GGGCUCGGUCUUCCGGCUGGGUCCACAUGAGGAUCACCCAUGUAGGAUAUCCCGGCUGCCGGCCGGGAGAAGGGCGUGUGUUUC [-39.8, -36.9 kcal, 14% A] (Eterna round: R96, puzzle: Exclusion NG 3)
Input ligand: FMN 200 uM
  apparent KD of MS2 coat protein: 22.6 nM
[4]
  apparent KD of MS2 coat protein: 13.3 nM
Input ligand: none
  apparent KD of MS2 coat protein: 21.5 nM

## GGGUGACAGUUAGGAUAUCUUAGCACGCCGUAGAGAGAAGGGACAUGAGGAUCACCCAUGUUGUAGUGCCUCCAGCACUGCUAG [Esrasoce] (Eterna round: R96, puzzle: Exclusion NG 1)
Input ligand: FMN 200 uM
  apparent KD of MS2 coat protein: 105 nM
[4]
  apparent KD of MS2 coat protein: 34 nM
Input ligand: none
  apparent KD of MS2 coat protein: 66.4 nM

## GGUAAGUGUGACUUGGGUGACAUGAGGAUCACCCAUGUCACAAGCUUGUUGCUCGCCUUGUAAUUAACCCAUGUCAC [LRO Sensor-off var1-28 mod of Stov1-13-A1 by Brourd] (Eterna round: R97, puzzle: Sensor, turn-off variant 1)
Input ligand: FMN 200 uM
  apparent KD of MS2 coat protein: 17.3 nM
Input ligand: none
  apparent KD of MS2 coat protein: 18.6 nM

## GGUACUAACAGCUGACUGUUAGUACUGUAGGUUUGUGUUACAUGAGGAUCACCCAUGUCCUCAUAAGCUCGUCUUGU [JL-sv3-2.23 mat747 mod] (puzzle: Sensor v3, turn-off variant 2)
[2]
  apparent KD of MS2 coat protein: 382 nM
[1]
  apparent KD of MS2 coat protein: 252 nM
[3]
  apparent KD of MS2 coat protein: 445 nM

## GGUACUAACAGCUGACUGUUAGUACUGUAGGUUUGUGUUACAUGAGGAUCACCCAUGUCCUCAUAGGCUCGUCUUGU [JL-sv3-2.24 mat747 mod] (puzzle: Sensor v3, turn-off variant 2)
[2]
  apparent KD of MS2 coat protein: 281 nM
[1]
  apparent KD of MS2 coat protein: 91.5 nM
[3]
  apparent KD of MS2 coat protein: 739 nM

## GGUACUAUCACCUGAGUGGUAGUGCUAUAAGCUUGUGAUACAUGAGGAUCACCCAUGUCCUCAUUUGCUCGUCUUAU [JL-sv3-2.29 JL mod] (puzzle: Sensor v3, turn-off variant 2)
[2]
  apparent KD of MS2 coat protein: 602 nM
[1]
  apparent KD of MS2 coat protein: 610 nM
[3]
  apparent KD of MS2 coat protein: 824 nM
